Experimental data published in patent publication EP4631959A2, “NOVEL MINIGASTRIN-DERIVED CHOLECYSTOKININ 2 RECEPTOR BINDING MOLECULES FOR IMAGING AND TARGETED RADIOTHERAPY” (priority 2022, dated 2024).
Like-named read-outs stand apart in the source and are kept apart here. Starred links: 1 amine or outer side, 2 acyl side, 3 side chain; linkers in the order of their positions; H or OH if unused. Non-standard residues stand in square brackets, D forms with d. Residues, ends and D or L forms follow the SMILES beside them. *: point of attachment. DOTAGA = O=C(O)CN1CCN(CC(=O)O)CCN(C(CCC(=O)*)C(=O)O)CCN(CC(=O)O)CC1; X2 = O=C(O)CN1CCN(CC(=O)O)CCN([C@H](CCC(=O)*)C(=O)O)CCN(CC(=O)O)CC1; Benzoyl(4-SiFtBu2) = CC(C)(C)[Si](F)(c1ccc(C(=O)*)cc1)C(C)(C)C; DOTA = O=C(O)CN1CCN(CC(=O)O)CCN(CC(=O)*)CCN(CC(=O)O)CC1; d(γGlu) = O=C(O)[C@@H](CCC(=O)[*:2])N[*:1]; PEG8 = NCCOCCOCCOCCOCCOCCOCCOCCOCCC(=O)O; 1Nal = N[C@@H](Cc1cccc2ccccc12)C(=O)O; NMeNle = CCCC[C@H](NC)C(=O)O; PEG3 = NCCOCCOCCOCCC(=O)O; Nle = CCCC[C@H](N)C(=O)O; dDap = NC[C@@H](N)C(=O)O

Assays:
CCK-2R = target: T1, CCK-2R (Rattus norvegicus, UniProt P30553); assay: Determination of IC50: CCK-2R affinity on AR4-2J cells, competition with [^177Lu]Lu-DOTA-PP-F11N; assay type: binding
T1 construct: The CCK-2R expressing rat pancreatic tumor cells AR4-2J; host or cells: AR4-2J rat pancreatic tumor cells
T1 sequence (P30553 1-452): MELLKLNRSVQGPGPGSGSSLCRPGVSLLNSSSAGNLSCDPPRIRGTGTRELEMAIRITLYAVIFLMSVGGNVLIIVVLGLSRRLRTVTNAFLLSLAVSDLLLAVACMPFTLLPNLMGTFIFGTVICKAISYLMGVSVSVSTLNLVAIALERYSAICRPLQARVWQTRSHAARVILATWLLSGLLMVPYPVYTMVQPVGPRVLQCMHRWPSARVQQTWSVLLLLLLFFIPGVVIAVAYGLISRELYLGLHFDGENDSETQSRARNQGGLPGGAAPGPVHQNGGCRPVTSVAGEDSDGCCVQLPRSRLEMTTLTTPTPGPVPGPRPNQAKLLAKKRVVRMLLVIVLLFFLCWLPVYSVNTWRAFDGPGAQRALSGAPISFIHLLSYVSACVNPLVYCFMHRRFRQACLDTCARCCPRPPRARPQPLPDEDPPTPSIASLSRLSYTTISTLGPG
Method in brief: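 Competitive displacement of 0.3 pmol/well [177Lu]Lu-DOTA-PP-F11N by compounds (10^-10 to 10^-4 M) on AR4-2J cells in BSA-supplemented medium, 3 h at 37 °C. Free label was collected from medium plus PBS rinse, and cell-bound label was recovered with 1 M NaOH, both measured by γ-counter. Each IC50 was determined twice, in triplicate.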

[1] = n-Octanol-PBS distribution coefficient (logD7.4); assay type: physicochemical; details: pH = 7.4, ^177Lu-labeled
Description: Approximately 1 MBq of the labeled tracer was dissolved in 1 mL of a 1/1 mixture (v/v) of phosphate buffered saline (PBS, pH = 7.4) and n-octanol in an Eppendorf tube (1.5 mL). After vigorous mixing of the suspension for 3 min at rt, the vial was centrifuged at 9,000 rpm for 5 min (Biofuge 15, Heraeus Sepatech, Osterode, Germany) and 200 µL aliquots of both layers were measured in a γ-counter. The experiment was repeated at least five times.

[2] = read-out: IC50 [nM] (n = 3), ^natLu-labeled; AR4-2J cells; ^natLu-labeled
[3] = AR4-2J cells; ^natLu-labeled; read-out: IC50 [nM] (n = 3), ^natLu-labeled

Compound	IC50 (CCK-2R; [2])	logD7.4 (n ≥ 5), ^177Lu-labeled [1]	IC50 (CCK-2R; [3])	logD7.4 (n ≥ 5), ^177Lu-labeled ([1]; listed as [^177Lu]Lu-DOTA-CCK-63)
CCCC[C@H](NC(=O)[C@H](Cc1c[nH]c2ccccc12)NC(=O)CNC(=O)[C@H](Cc1ccc(O)cc1)NC(=O)[C@H](C)NC(=O)[C@@H](CCC(=O)O)NC(=O)[C@@H](CCC(=O)O)NC(=O)[C@@H](CCC(=O)O)NC(=O)[C@@H](CCC(=O)O)NC(=O)[C@@H](CCC(=O)O)NC(=O)[C@@H](CCC(=O)O)NC(=O)[C@@H](CCC(=O)O)NC(=O)[C@@H](CNC(=O)c1ccc([Si](F)(C(C)(C)C)C(C)(C)C)cc1)NC(=O)CCC(C(=O)O)N1CCN(CC(=O)O)CCN(CC(=O)O)CCN(CC(=O)O)CC1)C(=O)N[C@@H](CC(=O)O)C(=O)N[C@@H](Cc1ccccc1)C(N)=O (some centres unmarked) [DOTAGA-MG-SiFA-20, DOTAGA-dap(SiFA)-glu-F11N] ({DOTAGA}-[dDap](Benzoyl(4-SiFtBu2))[dE][dE][dE][dE][dE][dE][dE]AYGW[Nle]DF-NH2)	58 ± 11 nM	−2.19 ± 0.08	–	–
CCCC[C@@H](C(=O)N[C@@H](CC(=O)O)C(=O)N[C@@H](Cc1cccc2ccccc12)C(N)=O)N(C)C(=O)[C@H](Cc1c[nH]c2ccccc12)NC(=O)CCOCCOCCOCCNC(=O)CC[C@@H](NC(=O)CN1CCN(CC(=O)O)CCN(CC(=O)O)CCN(CC(=O)O)CC1)C(=O)O [DOTA-CCK-63, DOTA-γ-glu-(PEG)2-Trp-(N-Me)Nle-Asp-1-Nal-NH2] ({DOTA-d(γGlu)-PEG3}-W[NMeNle]D[1Nal]-NH2)	–	−3.03 ± 0.09	4.8 ± 1.1 nM	< -3
CCCC[C@H](NC(=O)[C@H](Cc1c[nH]c2ccccc12)NC(=O)CNC(=O)[C@H](Cc1ccc(O)cc1)NC(=O)[C@H](C)NC(=O)[C@@H](CCC(=O)O)NC(=O)[C@@H](CCC(=O)O)NC(=O)[C@@H](CNC(=O)c1ccc([Si](F)(C(C)(C)C)C(C)(C)C)cc1)NC(=O)[C@@H](CCC(=O)O)NC(=O)[C@@H](CCC(=O)O)NC(=O)[C@@H](CCC(=O)O)NC(=O)[C@@H](CCC(=O)O)NC(=O)CCC(C(=O)O)N1CCN(CC(=O)O)CCN(CC(=O)O)CCN(CC(=O)O)CC1)C(=O)N[C@@H](CC(=O)O)C(=O)N[C@@H](Cc1ccccc1)C(N)=O (some centres unmarked) [DOTAGA-MG-SiFA-7, DOTAGA-glu-[dap(SiFA)^4]F11N] ({DOTAGA}-[dE][dE][dE][dE][dDap](Benzoyl(4-SiFtBu2))[dE][dE]AYGW[Nle]DF-NH2)	156 ± 4 nM	−2.03 ± 0.10	–	–
CCCC[C@H](NC(=O)[C@H](Cc1c[nH]c2ccccc12)NC(=O)CNC(=O)[C@H](Cc1ccc(O)cc1)NC(=O)[C@H](C)NC(=O)CC[C@@H](NC(=O)CC[C@@H](NC(=O)CC[C@@H](NC(=O)CC[C@@H](NC(=O)CC[C@@H](NC(=O)CC[C@@H](NC(=O)[C@@H](CNC(=O)c1ccc([Si](F)(C(C)(C)C)C(C)(C)C)cc1)NC(=O)CN1CCN(CC(=O)O)CCN(CC(=O)O)CCN(CC(=O)O)CC1)C(=O)O)C(=O)O)C(=O)O)C(=O)O)C(=O)O)C(=O)O)C(=O)N[C@@H](CC(=O)O)C(=O)N[C@@H](Cc1ccccc1)C(N)=O [DOTA-MG-SiFA-19]	–	−2.70 ± 0.09	7.54 ± 0.26 nM	–
CCCC[C@@H](C(=O)N[C@@H](CC(=O)O)C(=O)N[C@@H](Cc1cccc2ccccc12)C(N)=O)N(C)C(=O)[C@H](Cc1c[nH]c2ccccc12)NC(=O)CCOCCOCCOCCOCCOCCOCCOCCOCCNC(=O)CC[C@@H](NC(=O)CN1CCN(CC(=O)O)CCN(CC(=O)O)CCN(CC(=O)O)CC1)C(=O)O [DOTA-CCK-80, DOTA-γ-glu-(PEG)7-Trp-(N-Me)Nle-Asp-1-Nal-NH2] ({DOTA-d(γGlu)-PEG8}-W[NMeNle]D[1Nal]-NH2)	–	−2.51 ± 0.09	7.9 ± 0.2 nM	–
CCCC[C@@H](C(=O)N[C@@H](CC(=O)O)C(=O)N[C@@H](Cc1cccc2ccccc12)C(N)=O)N(C)C(=O)[C@H](Cc1c[nH]c2ccccc12)NC(=O)CNC(=O)[C@H](Cc1ccc(O)cc1)NC(=O)[C@H](C)NC(=O)CNC(=O)CN1CCN(CC(=O)O)CCN(CC(=O)O)CCN(CC(=O)O)CC1 [DOTA-CCK-57, DOTA-Gly-Ala-Tyr-Gly-Trp-(N-Me)Nle-Asp-1-Nal-NH2] ({DOTA}-GAYGW[NMeNle]D[1Nal]-NH2)	–	−1.26 ± 0.08	5.6 ± 0.5 nM	–
CCCC[C@@H](C(=O)N[C@@H](CC(=O)O)C(=O)N[C@@H](Cc1cccc2ccccc12)C(N)=O)N(C)C(=O)[C@H](Cc1c[nH]c2ccccc12)NC(=O)CNC(=O)CNC(=O)[C@H](C)NC(=O)CC[C@@H](NC(=O)CN1CCN(CC(=O)O)CCN(CC(=O)O)CCN(CC(=O)O)CC1)C(=O)O [DOTA-CCK-60, DOTA-γ-glu-Ala-(Gly)2-Trp-(N-Me)Nle-Asp-1-Nal-NH2] ({DOTA-d(γGlu)}-AGGW[NMeNle]D[1Nal]-NH2)	–	−2.56 ± 0.09	7.9 ± 0.43 nM	–
CCCC[C@@H](C(=O)N[C@@H](CC(=O)O)C(=O)N[C@@H](Cc1cccc2ccccc12)C(N)=O)N(C)C(=O)[C@H](Cc1c[nH]c2ccccc12)NC(=O)CNC(=O)[C@H](Cc1ccc(O)cc1)NC(=O)CNC(=O)CC[C@@H](NC(=O)CN1CCN(CC(=O)O)CCN(CC(=O)O)CCN(CC(=O)O)CC1)C(=O)O [DOTA-CCK-59, DOTA-γ-glu-Gly-Tyr-Gly-Trp-(N-Me)Nle-Asp-1-Nal-NH2] ({DOTA-d(γGlu)}-GYGW[NMeNle]D[1Nal]-NH2)	–	−2.63 ± 0.05	4.2 ± 0.5 nM	–
CCCC[C@H](NC(=O)[C@H](Cc1c[nH]c2ccccc12)NC(=O)CNC(=O)[C@H](Cc1ccc(O)cc1)NC(=O)[C@H](C)NC(=O)CC[C@@H](NC(=O)CC[C@@H](NC(=O)CC[C@@H](NC(=O)CC[C@@H](NC(=O)CC[C@@H](NC(=O)CCCNC(=O)CCCNC(=O)CCCNC(=O)[C@@H](CNC(=O)c1ccc([Si](F)(C(C)(C)C)C(C)(C)C)cc1)NC(=O)CN1CCN(CC(=O)O)CCN(CC(=O)O)CCN(CC(=O)O)CC1)C(=O)O)C(=O)O)C(=O)O)C(=O)O)C(=O)O)C(=O)N[C@@H](CC(=O)O)C(=O)N[C@@H](Cc1ccccc1)C(N)=O [DOTA-MG-SiFA-46, DOTA-dap(SiFA)-(GABA)3-(γ-glu)5-F11N]	5.52 ± 0.25 nM	−2.09 ± 0.07	–	–
CCCC[C@H](NC(=O)[C@H](Cc1c[nH]c2ccccc12)NC(=O)CNC(=O)[C@H](Cc1ccc(O)cc1)NC(=O)[C@H](C)NC(=O)CC[C@@H](NC(=O)CC[C@@H](NC(=O)CC[C@@H](NC(=O)CC[C@@H](NC(=O)CC[C@@H](NC(=O)CC[C@@H](NC(=O)CC[C@@H](NC(=O)CC[C@@H](NC(=O)[C@@H](CNC(=O)c1ccc([Si](F)(C(C)(C)C)C(C)(C)C)cc1)NC(=O)CCC(C(=O)O)N1CCN(CC(=O)O)CCN(CC(=O)O)CCN(CC(=O)O)CC1)C(=O)O)C(=O)O)C(=O)O)C(=O)O)C(=O)O)C(=O)O)C(=O)O)C(=O)O)C(=O)N[C@@H](CC(=O)O)C(=O)N[C@@H](Cc1ccccc1)C(N)=O (some centres unmarked) [DOTAGA-MG-SiFA-23, DOTAGA-dap(SiFA)-(γ-glu)2-γ-F11N]	20.4 ± 2 nM	−2.10 ± 0.06	–	–
CCCC[C@H](NC(=O)[C@H](Cc1c[nH]c2ccccc12)NC(=O)CNC(=O)[C@H](Cc1ccc(O)cc1)NC(=O)[C@H](C)NC(=O)CC[C@@H](NC(=O)CC[C@@H](NC(=O)CC[C@@H](NC(=O)[C@@H](CNC(=O)c1ccc([Si](F)(C(C)(C)C)C(C)(C)C)cc1)NC(=O)CC[C@@H](NC(=O)CC[C@@H](NC(=O)CC[C@@H](NC(=O)CC[C@H](C(=O)O)N1CCN(CC(=O)O)CCN(CC(=O)O)CCN(CC(=O)O)CC1)C(=O)O)C(=O)O)C(=O)O)C(=O)O)C(=O)O)C(=O)O)C(=O)N[C@@H](CC(=O)O)C(=O)N[C@@H](Cc1ccccc1)C(N)=O [DOTAGA-MG-SiFA-16, DOTAGA-γ-glu-[dap(SiFA)^3]γ-F11N] ({X2-d(γGlu)-d(γGlu)-d(γGlu)}-[dDap](Benzoyl(4-SiFtBu2))[d(γGlu)][d(γGlu)][d(γGlu)]AYGW[Nle]DF-NH2)	–	−2.57 ± 0.06	68.5 ± 11.4 nM	–
